The experiment has as its target T1, HA-tagged RIP (UniProt Q13546 1-671, limits assumed).
T1 construct: also called HA-RIP; not shown: HA tag
T1 sequence (looked up): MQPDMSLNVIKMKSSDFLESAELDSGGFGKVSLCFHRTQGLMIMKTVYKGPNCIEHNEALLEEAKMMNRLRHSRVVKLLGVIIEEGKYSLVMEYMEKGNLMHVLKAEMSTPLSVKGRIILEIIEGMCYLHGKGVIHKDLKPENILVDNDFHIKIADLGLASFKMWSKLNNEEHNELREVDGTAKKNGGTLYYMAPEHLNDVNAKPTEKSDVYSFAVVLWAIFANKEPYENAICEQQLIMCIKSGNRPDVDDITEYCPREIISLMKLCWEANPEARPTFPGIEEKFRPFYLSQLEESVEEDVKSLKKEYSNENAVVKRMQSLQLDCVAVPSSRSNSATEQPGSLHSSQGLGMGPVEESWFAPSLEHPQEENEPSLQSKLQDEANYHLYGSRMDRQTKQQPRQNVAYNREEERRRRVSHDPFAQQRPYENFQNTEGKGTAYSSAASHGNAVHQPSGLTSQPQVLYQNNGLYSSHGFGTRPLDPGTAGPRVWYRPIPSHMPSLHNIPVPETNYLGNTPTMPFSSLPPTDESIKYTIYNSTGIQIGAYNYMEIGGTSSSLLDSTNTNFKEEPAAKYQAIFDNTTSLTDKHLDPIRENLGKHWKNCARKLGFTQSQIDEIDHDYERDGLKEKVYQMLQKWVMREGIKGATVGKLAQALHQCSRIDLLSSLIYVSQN
In words: co-immunoprecipitation, HA-RIP and Flag-Apop3 mutant co-transfected in Phoenix-A (293 T) cells, anti-Flag immunoblot.

B1: Flag-tagged Apop3(1-251) (enzyme)
chain: MSCVKLWPSGAPAPLVSIEELENQELVGKDGFGTVFRAQHRKWGYDVAVKIVNSKAISREVKAMASLDNEFVLRLEGVIEKVNWDQDPKPALVTKFMENGSLSGLLQSQCPRPWPLLCRLLKEVVLGMFYLHDQNPVLLHRDLKPSNVLPDPELHVKLADFGLSTFQGGSQSGTGSGEPGGTLGYLAPELFVNVNRKASTASDVYSFGILMWAVLAGREVELPTEPSLVYEAVCNRQNRPSLAELPQAGPE
notes: not shown: Flag tag
For B1, the binding result was “no binding”.

B2: Flag-tagged Apop3(1-196) (enzyme)
chain: MSCVKLWPSGAPAPLVSIEELENQELVGKDGFGTVFRAQHRKWGYDVAVKIVNSKAISREVKAMASLDNEFVLRLEGVIEKVNWDQDPKPALVTKFMENGSLSGLLQSQCPRPWPLLCRLLKEVVLGMFYLHDQNPVLLHRDLKPSNVLPDPELHVKLADFGLSTFQGGSQSGTGSGEPGGTLGYLAPELFVNVNR
notes: not shown: Flag tag
Consider B2, for which the binding result was “no binding”.

B3: Flag-tagged Apop3(287-518) (other)
chain: FQMVENNMNAAVSTVKDFLSQLKSSNRRFSIPESGQGGTEMDGFRRTIENQHSRNDVMVSEWLNKLNLEEPPSSVPKKCPSLTKRSRAQEEQVPQAWTAGTSSDSMAQPPQTPETSTFRNQMPSPTSTGTPSPGPRGNQGAERQGMNWSCRTPEPNPVTGRPLVNIYNCSGVQVGDNNYLTMQQTTALPTWGLAPSGKGRGLQHPPPVGSQEGPKDPEAWSRPQGWYNHSGK
notes: not shown: Flag tag
As to B3, the binding result is “no binding”.

These data come from patent publication US7223850 (RIGEL PHARMACEUTICALS, dated 2007).
